{
  "source": "patent US20070292895",
  "key": {"[1]": {"target": "T1, coumarin-labeled 10-mer peptide substrate REVNFEVEFR", "T1 chain": "REVNFEVEFR"}, "[2]": {"target": "statine-Val (a peptide BACE-1 inhibitor)"}},
  "data": [
    {"protein": "mouse brain BACE-1 (MES membrane preparation from wild-type mice) (protein) ETDEESEEPGRRGSFVEMVDNLRGKSGQGYYVEMTVGSPPQTLNILVDTGSSNFAVGAAPHPFLHRYYQRQLSSTYRDLRKGVYVPYTQGKWEGELGTDLVSIPHGPNVTVRANIAAITESDKFFINGSNWEGILGLAYAEIARPDDSLEPFFDSLVKQTHIPNIFSLQLCGAGFPLNQTEALASVGGSMIIGGIDHSLYTGSLWYTPIRREWYYEVIIVRVEINGQDLKMDCKEYNYDKSIVDSGTTNLRLPKKVFEAAVKSIKAASSTEKFPDGFWLGEQLVCWQAGTTPWNIFPVISLYLMGEVTNQSFRITILPQQYLRPVEDVATSQDDCYKFAVSQSSTGTVMGAVIMEGFYVVFDRARKRIGFAVSACHVHDEFRTAAVEGPFVTADMEDCGYNIPQTDESTLMTIAYVMAAICALFMLPLCLMVCQWRCLRCLRHQHDDFADDISLLK", "values": [
      {"measurement": "hydrolysis of substrate (HPLC)", "setting": "[1]", "value": "hydrolysis was observed to be about 15% of total substrate that had been added in the reaction"},
      {"measurement": "substrate cleavage (HPLC product peak), brain extract", "setting": "[2]", "value": "BACE-1 inhibitor's Stat(V) and Merck-3 led to complete abolition of substrate cleavage"}
    ]}
  ]
}
